Data from article PMC4464401, “Biochemical properties and yields of diverse bacterial laccase-like multicopper oxidases expressed in Escherichia coli” (Scientific Reports, 2015).
Blank lines part the entries; values can stand above or below the molecule they belong to.

Experiments:
Test in all cases: spectrophotometric oxidation, Michaelis-Menten fit with uncompetitive substrate inhibition
B. coagulans LMCO (CotA) = biological target: T1, B. coagulans LMCO (CotA) (Heyndrickxia coagulans, UniProt A0AAN0WB15); format: biochemical; details: 30 °C
T1 construct: gene SB48_HM08orf01352
T1 sequence (A0AAN0WB15 1-522): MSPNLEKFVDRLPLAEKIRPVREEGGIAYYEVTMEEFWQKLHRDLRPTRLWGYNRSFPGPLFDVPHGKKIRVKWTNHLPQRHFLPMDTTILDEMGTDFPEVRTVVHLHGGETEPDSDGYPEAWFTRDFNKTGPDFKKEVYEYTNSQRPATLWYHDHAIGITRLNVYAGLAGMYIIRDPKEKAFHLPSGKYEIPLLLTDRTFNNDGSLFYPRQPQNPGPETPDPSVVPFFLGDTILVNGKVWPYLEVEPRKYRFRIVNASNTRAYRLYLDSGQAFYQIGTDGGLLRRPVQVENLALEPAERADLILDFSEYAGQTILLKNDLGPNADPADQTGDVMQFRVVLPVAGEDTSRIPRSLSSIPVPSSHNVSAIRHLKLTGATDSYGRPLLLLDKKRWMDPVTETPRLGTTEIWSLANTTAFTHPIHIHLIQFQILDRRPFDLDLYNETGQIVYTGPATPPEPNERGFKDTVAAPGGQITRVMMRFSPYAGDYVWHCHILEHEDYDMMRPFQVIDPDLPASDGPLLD
Excerpt: spectrophotometric oxidation, Michaelis-Menten fit with uncompetitive substrate inhibition on B. coagulans LMCO (CotA)

[1] = substrate: COc1cccc(OC)c1O; format: biochemical, Shouchella clausii; details: pH 8.0, McIlvaine buffer, 30 °C, pH 8.0
Excerpt: (§1) spectrophotometric oxidation, Michaelis-Menten fit with uncompetitive substrate inhibition on B. clausii LMCO (CotA)

[2] = substrate: CCn1c(=NN=c2sc3cc(S(=O)(=O)O)ccc3n2CC)sc2cc(S(=O)(=O)O)ccc21; format: biochemical, Shouchella clausii; details: pH 4.0, McIlvaine buffer, 30 °C, pH 4.0
Excerpt: as §1

- B. coagulans (B. coagulans LMCO (CotA); pH 7.5, McIlvaine buffer): 36 ± 9.8 mM
Molecule: COc1cccc(OC)c1O [2,6-DMP, 2,6-dimethoxyphenol]

- B. coagulans (B. coagulans LMCO (CotA); pH 4.0, McIlvaine buffer): 0.94 ± 0.11 mM
Molecule: CCn1c(=NN=c2sc3cc(S(=O)(=O)O)ccc3n2CC)sc2cc(S(=O)(=O)O)ccc21 [ABTS, 2′-azino-bis(3-ethylbenzthiazoline-6-sulphonic acid)]

B1: B. clausii LMCO (CotA) (Shouchella clausii KSM-K16) (protein)
chain: MELEKFVDPMPIMKTAIPKKTSKDGDYYEIEMKEFSQKLHRDLNPTRLWGYDGQFPGPTIEVMRGKPARIKWMNNLPDTHFLPIDRSIHHVAHEPEVRTVVHLHGSETTPASDGYPEAWFTKDFAEVGSFFEQETYEYPNDQRAATLWYHDHAMGITRLNVYAGLSGLYIIRDPREEQLNLPKGEFDIPLLIQDRSFNDDGSLFYPAQPANPAPNLPNPSVLPFFVGDTILVNGKVWPYLQVEPRKYRFRILNGSNSRSYQLALDSEAPFYQIASDGGLLRRTVSLQAFDIRPAERIEAIIDFSKFEGQTITLKNNASTDATADVMQFQVVLPLSGEDTSIIPQNLSYIPSLQQNDVKRIRNLKISGTTDEYGRPLLLLNNKLWSDPVEEKPCLGTTEIWSFVNVTNVPHPMHIHLVQFQLLDHRAFNVELYNENGQIELVGPTIPPKINERGWKDTITAPAGQITRVIARFAPFSGYYVWHCHILEHEDYDMMRPFVVIDPKTEKERR
- Km [1]: 8.535 ± 2.394 mM
- kcat [1]: 65 ± 15.2 s⁻¹
- Km [2]: 0.132 ± 0.011 mM
- kcat [2]: 90 ± 2.3 s⁻¹
